Data taken from patent US20250108138A1, “TH[…] CONJUGATES” (MERCK PATENT GMBH, priority 2022, published 2025).

Assays:
FR = target: T1, FR (Homo sapiens, UniProt P15328); assay: FR-binding affinity (KD) on FR-positive IGROV-1 cells; settings: 1 h at 4° C., specific binding (excess folic acid block)
T1 construct: FR-positive IGROV-1 cells (human ovarian carcinoma cell line); endogenous in cells; host or cells: IGROV-1 human ovarian carcinoma cells
Method: The determination of the KD values was performed as previously reported (Deberle, L. M. et al; Bioconj Chem 2021, 32, p. 1617). FR-positive IGROV-1 cells (human ovarian carcinoma cell line, kindly provided by Dr. Gerrit Janssen, Free University Medical Center Amsterdam, The Netherlands) were seeded in 48-well plates (2.5×10^5 cells/well) in 500 μL FFRPMI medium with supplements. The cells were incubated at 37° C. and 5% CO2 to allow cell adhesion overnight. The experiment was performed on ice using ice-cold medium and buffer solutions. After removal of the supernatant, the cells were rinsed once with PBS prior to the addition of FFRPMI medium without supplements (450 μL/well). The respective folate radioconjugate of the disclosure (20 MBq/nmol) was added to each well at variable concentrations (in the range of 0.1 to 500 nM, 50 μL per well). […] The IGROV-1 tumor cells were incubated for 1 h at 4° C. on a shaker, followed by removal of the supernatants and rinsing the cells twice with PBS. After lysis of the cells with NaOH solution (1 M, aq., 500 μL), the samples were counted for activity in a γ-counter (Wallac Wizard 1480, Perkin Elmer). The counts per minute (cpm) of the specific binding (determined by subtracting the cpm of the unspecific binding from the cpm of total binding), were plotted against the molar concentration of the added folate radioconjugates of the disclosure. […]

[1] = target: T2, albumin in mouse blood plasma (Mus musculus, UniProt P07724); assay: Albumin-bound fraction, ultrafiltration filter assay, mouse blood plasma; assay type: in vitro ADME; settings: 37° C., 30 min, percentage of total activity measured
T2 construct: tissue Rockland Immunochemicals, Inc., USA; host or cells: mouse blood plasma
Method: (§1) Albumin-binding properties were determined in mouse and human blood plasma. The albumin-binding properties of the folate radioconjugates of the disclosure in mouse blood plasma (Rockland Immunochemicals, Inc., USA) and human blood plasma (Stiftung Blutspende SRK Aargau-Solothurn, Switzerland) were determined using an ultrafiltration method (Deberle, L. M. et al., Molecules 2020, 25, (11)). The amount of serum albumin in mouse (MSA) and human (HSA) blood plasma was defined as 550 μM and 800 μM, respectively, based on measurements using a dry chemistry analyzer (DRI-CHEM 4000i, FUJIFILM, Japan). The folate radioconjugates of the disclosure (50 MBq/nmol, ca. 300 kBq, 0.006 nmol in 15 μL) were added to samples of mouse and human blood plasma (150 μL), followed by incubation of the samples at 37° C. for 30 min. The samples were loaded on Amicon centrifugal filters (cut-off of 10 kDa; Merck Millipore) followed by centrifugation (14,000 rcf, 30 min, 4° C.) to allow the separation of the plasma-bound from the plasma-unbound (free) fractions of each sample. […] The activity of the protein-bound fraction as well as the activity in the filtrate and in the filter unit were measured separately in a gamma-counter (Perkin Elmer, Wallac Wizard 1480). The percentage of radioconjugate bound to mouse and human albumin, respectively, was set in relation to the total activity measured (Table 4).

[2] = target: T3, human serum albumin (HSA) (Homo sapiens, UniProt P02768); assay: Relative albumin-binding affinity (B50), human blood plasma; assay type: in vitro ADME; settings: inverse ratio of B50, normalized to [^177Lu]Lu-OxFol-1 (set as 1.0)
T3 construct: tissue Stiftung Blutspende SRK Aargau-Solothurn, Switzerland; host or cells: human blood plasma
Method: (§2) Relative albumin-binding affinity of the folate radioconjugates of the disclosure: The albumin-binding affinity of the folate radioconjugates of the disclosure was assessed and compared to that of [^177Lu]Lu-OxFol-1. A fixed amount of radioconjugate (50 MBq/nmol), ^˜300 kBq, 15 μL, 0.006 nmol) was added to a defined volume (150 μL) of mouse and human blood plasma and various dilutions thereof in PBS pH 7.4, resulting in defined mouse serum albumin (MSA)-to-folate radioconjugate or human serum albumin (HSA)-to-folate radioconjugate molar concentration ratios ranging from 0.01 to 12′500 and 0.01 to 20′000, respectively. The albumin-bound fraction was determined using an ultrafiltration device as described above.
(§3) The data were analyzed using a semi-logarithmic plot assuming a maximum binding of 100%. The Hill equation was fitted to the data points and the half-maximum binding (B50) was determined based on the obtained binding curves (GraphPad Prism software, version 8). The relative albumin-binding affinities were defined as the inverse ratio of the B50 value of each radioconjugate of the disclosure to the reference compound [^177Lu]Lu-OxFol-1 (set as 1.0). […] The results were presented as average±SD of 2-3 independent experiments (Table 5).

[3] = target: T4, mouse serum albumin (MSA) (Mus musculus, UniProt P07724); assay: Relative albumin-binding affinity (B50), mouse blood plasma; assay type: in vitro ADME; settings: inverse ratio of B50, normalized to [^177Lu]Lu-OxFol-1 (set as 1.0)
T4 construct: The amount of serum albumin in mouse (MSA) and human (HSA) blood plasma was defined as 550 μM and 800 μM; tissue Rockland Immunochemicals, Inc., USA; host or cells: mouse blood plasma
Method: as §2, §3

[4] = n-octanol/PBS distribution coefficient (log D); assay type: physicochemical; settings: n-octanol/PBS pH 7.4, mean±SD
Method: Example 5: PBS/n-Octanol Distribution Coefficient (Log D Values) The n-octanol/PBS distribution coefficients (log D values) were determined for each folate radioconjugate of the disclosure and a reference compound in order to assess their hydrophilic/hydrophobic properties. The log D values of the folate radioconjugates of the disclosure (50 MBq/nmol) were determined as previously reported, after dilution in PBS pH 7.4 to obtain an activity concentration of 10 MBq/500 μL. A sample of each radiofolate (ca. 0.5 MBq, 25 μL, 0.01 nmol) was added to a mixture of 1475 μL PBS pH 7.4 and 1500 μL n-octanol. The vials were vortexed vigorously for 1 min followed by centrifugation for 6 min at 2500 rpm for phase separation. An aliquot was taken from each phase and measured in a gamma-counter (Perkin Elmer, Wallac Wizard 1480). The distribution coefficients were calculated as the logarithm of the ratio of counts per minute (cpm) measured in the n-octanol phase relative to the cpm measured in the PBS phase. The results were listed as mean±SD of the data obtained from 3-4 independent experiments, each performed with five replicates.

[5] = target: T5, albumin in human blood plasma (Homo sapiens, UniProt P02768); assay: Albumin-bound fraction, ultrafiltration filter assay, human blood plasma; assay type: in vitro ADME; settings: 37° C., 30 min, percentage of total activity measured
T5 construct: tissue Stiftung Blutspende SRK Aargau-Solothurn, Switzerland; host or cells: human blood plasma
Method: as §1

T4 sequence (P07724 25-608): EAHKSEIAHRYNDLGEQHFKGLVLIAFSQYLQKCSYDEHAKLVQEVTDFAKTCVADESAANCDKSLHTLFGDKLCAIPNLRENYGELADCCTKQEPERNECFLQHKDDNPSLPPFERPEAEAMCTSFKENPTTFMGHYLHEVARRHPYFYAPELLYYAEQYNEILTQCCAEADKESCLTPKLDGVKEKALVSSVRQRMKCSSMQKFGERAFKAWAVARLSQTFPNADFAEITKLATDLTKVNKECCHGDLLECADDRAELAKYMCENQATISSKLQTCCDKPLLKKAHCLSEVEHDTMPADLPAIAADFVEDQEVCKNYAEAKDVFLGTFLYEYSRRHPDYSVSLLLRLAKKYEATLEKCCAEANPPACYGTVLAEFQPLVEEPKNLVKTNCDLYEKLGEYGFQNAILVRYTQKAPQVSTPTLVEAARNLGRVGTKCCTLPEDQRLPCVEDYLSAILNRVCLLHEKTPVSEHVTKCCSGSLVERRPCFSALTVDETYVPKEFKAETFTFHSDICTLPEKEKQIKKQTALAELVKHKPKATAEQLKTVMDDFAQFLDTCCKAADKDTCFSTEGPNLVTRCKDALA
T2 sequence (P07724 25-608): as above
T5 sequence (P02768 25-609): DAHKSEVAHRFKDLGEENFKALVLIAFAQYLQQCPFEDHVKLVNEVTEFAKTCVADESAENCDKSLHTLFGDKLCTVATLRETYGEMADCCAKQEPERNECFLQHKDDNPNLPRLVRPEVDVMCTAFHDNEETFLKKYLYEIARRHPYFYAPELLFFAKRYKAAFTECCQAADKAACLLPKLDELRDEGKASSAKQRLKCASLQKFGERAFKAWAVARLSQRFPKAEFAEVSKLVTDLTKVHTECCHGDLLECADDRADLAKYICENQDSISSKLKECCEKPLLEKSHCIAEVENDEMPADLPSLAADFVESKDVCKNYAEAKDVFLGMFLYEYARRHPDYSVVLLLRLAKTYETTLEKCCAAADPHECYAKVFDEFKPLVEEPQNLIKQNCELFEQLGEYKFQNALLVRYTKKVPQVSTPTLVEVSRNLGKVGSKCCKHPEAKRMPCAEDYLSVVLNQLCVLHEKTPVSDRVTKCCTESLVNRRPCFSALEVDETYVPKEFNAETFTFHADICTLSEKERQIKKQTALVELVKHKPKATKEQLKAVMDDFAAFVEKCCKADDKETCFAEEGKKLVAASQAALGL
T3 sequence (P02768 25-609): as above
T1 sequence (P15328 25-234): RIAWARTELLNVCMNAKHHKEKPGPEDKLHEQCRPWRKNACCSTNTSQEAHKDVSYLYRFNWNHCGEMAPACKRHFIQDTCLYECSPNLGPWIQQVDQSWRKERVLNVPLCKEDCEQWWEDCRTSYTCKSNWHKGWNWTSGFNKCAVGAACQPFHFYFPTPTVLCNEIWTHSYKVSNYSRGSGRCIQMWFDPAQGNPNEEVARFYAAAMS

## Nc1nc2ncc(CNc3ccc(C(=O)N[C@@H](CCC(=O)N[C@@H](CCCCNC(=O)CN4CCN(CC(=O)O)CCN(CC(=O)O)CCN(CC(=O)O)CC4)C(=O)N[C@@H](CCCCNC(=O)CCCc4ccc(I)cc4)C(=O)O)C(=O)O)cc3)nc2c(=O)[nH]1 [[^177Lu]Lu-OxFol-1, metal not drawn]
FR
  Kd: 2.8 nM
[1]
  Albumin-bound fraction, mouse blood plasma: 90%
[2]
  Relative albumin-binding affinity, human plasma: 1.00
[3]
  Relative albumin-binding affinity, mouse plasma: 1.00
[4]
  logD Value: −4.2 ± 0.2
[5]
  Albumin-bound fraction, human blood plasma: 96%
